Measurements taken from patent US20090203610A1, “METHODS OF TREATING OBESITY OR DIABETES USING NT-4/5” (RINAT NEUROSCIENCE CORPORATION, priority 2004, published 2009).
One block for each molecule: values may come before it.

Key:
p75NTR = target: T1, p75NTR (Homo sapiens, UniProt P08138); details: low affinity receptor (LNGFR, p75NTR); cited from earlier work
T1 sequence (P08138 29-427): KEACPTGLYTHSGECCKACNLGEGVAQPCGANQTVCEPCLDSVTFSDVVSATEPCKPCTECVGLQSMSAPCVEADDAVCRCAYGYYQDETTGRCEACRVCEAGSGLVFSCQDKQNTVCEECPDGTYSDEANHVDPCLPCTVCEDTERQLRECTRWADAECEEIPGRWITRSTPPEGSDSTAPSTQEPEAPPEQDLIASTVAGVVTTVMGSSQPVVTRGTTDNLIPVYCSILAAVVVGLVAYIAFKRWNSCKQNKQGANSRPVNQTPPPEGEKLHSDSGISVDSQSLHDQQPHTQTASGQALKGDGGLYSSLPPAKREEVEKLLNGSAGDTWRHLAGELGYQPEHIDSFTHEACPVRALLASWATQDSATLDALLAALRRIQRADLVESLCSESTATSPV

human TrkC = target: T2, human TrkC (Homo sapiens, UniProt Q16288); assay: Receptor tyrosine phosphorylation in trkC expressing cell line; type: cell-based
T2 construct: expressed in transfected cells
T2 sequence (Q16288 32-839): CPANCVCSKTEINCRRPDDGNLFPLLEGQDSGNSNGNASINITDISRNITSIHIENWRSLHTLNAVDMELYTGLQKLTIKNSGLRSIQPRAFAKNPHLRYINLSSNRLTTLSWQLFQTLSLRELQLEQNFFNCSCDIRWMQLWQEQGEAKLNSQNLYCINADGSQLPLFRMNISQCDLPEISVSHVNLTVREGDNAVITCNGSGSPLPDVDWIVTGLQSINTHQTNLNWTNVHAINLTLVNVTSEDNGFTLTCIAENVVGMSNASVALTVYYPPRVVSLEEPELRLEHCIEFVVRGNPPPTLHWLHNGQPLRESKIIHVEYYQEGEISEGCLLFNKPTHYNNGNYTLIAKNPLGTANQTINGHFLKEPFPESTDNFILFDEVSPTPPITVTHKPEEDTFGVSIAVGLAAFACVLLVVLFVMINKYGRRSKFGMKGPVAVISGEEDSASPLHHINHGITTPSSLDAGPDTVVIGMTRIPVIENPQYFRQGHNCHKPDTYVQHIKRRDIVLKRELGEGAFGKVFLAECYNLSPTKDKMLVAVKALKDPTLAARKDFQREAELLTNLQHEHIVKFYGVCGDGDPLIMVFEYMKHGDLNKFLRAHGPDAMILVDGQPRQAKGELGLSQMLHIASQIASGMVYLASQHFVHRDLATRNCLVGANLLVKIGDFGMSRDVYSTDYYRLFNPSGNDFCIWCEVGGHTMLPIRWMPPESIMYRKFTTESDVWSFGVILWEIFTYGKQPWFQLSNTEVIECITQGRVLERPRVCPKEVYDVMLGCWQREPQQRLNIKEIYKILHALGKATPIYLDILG
Excerpt: (§1) Assays of TrkB specific activation by pegylated NT-4/5: Stable cell lines expressing human TrkA, TrkB or TrkC were used to determine the functional activity, i.e. receptor phosphorylation, of NT-4/5 and pegylated NT-4/5 as previously described (Sadick et al. Experimental Cell Research 234: 354-361, 1997).
as §1, with “and different forms of” for “and”

DIO mice [1] = assay: NT-4/5 versus BDNF on body weight and food intake of DIO mice (Example 10); type: in vivo; details: 2 mg/kg i.v.
Excerpt: (§2) Test animals: Mice with diet induced obesity (DIO) were used in this study. 22 male C57BL/6J mice were weaned at 4 weeks of age. Immediately after weaning they were put on 58% high fat diet (D12331i, Research Diet) through out the study. The DIO mice at 13 weeks of age weighing in the range of 28-40 g were used in this study.
Administration of NT-4/5 and BDNF: NT-4/5 was produced was produced as described in U.S. Pat. No. 6,184,360. The recombinant human BDNF was obtained from PeproTech Inc. (Rocky Hill, N.J.).
The mice were divided into 3 groups of equivalent body weight distribution (7-8 mice per group). Each group received 2 weekly intravenous doses of either vehicle, 2 mg/kg of NT-4/5 or 2 mg/kg of BDNF, respectively. Body weight and food intake were taken the day before treatment started (day 0) and followed subsequently on a daily basis.

human TrkB = target: T3, human TrkB (Homo sapiens, UniProt Q16620); assay: Receptor tyrosine phosphorylation (KIRA) in TrkB expressing cell line; type: cell-based
T3 construct: expressed in transfected cells
T3 sequence (Q16620 32-822): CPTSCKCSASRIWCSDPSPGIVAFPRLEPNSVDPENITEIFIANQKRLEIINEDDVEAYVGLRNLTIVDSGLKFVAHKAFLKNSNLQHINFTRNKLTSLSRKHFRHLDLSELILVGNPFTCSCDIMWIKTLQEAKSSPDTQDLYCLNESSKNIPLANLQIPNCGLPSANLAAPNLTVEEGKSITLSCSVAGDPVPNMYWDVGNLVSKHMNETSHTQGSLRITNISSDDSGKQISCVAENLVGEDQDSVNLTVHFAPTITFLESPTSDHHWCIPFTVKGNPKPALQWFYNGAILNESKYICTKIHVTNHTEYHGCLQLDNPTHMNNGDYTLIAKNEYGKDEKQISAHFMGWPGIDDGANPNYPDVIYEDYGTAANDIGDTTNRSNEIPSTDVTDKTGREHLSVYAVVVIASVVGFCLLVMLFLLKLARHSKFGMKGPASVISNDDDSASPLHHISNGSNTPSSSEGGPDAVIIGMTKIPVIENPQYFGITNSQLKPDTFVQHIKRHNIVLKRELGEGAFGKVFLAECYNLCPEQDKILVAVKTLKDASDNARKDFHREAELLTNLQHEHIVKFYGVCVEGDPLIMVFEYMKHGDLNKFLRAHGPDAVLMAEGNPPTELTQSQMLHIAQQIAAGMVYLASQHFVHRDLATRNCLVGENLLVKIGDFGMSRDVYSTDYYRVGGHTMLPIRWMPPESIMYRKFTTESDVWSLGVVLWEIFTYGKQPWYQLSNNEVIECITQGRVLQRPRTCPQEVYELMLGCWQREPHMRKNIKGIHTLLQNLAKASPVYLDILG
Excerpt: Method of making pegylated NT-4/5 (S50C): The native form of NT-4/5 used in this study was produced according to the method described in U.S. Pat. No. 6,184,360. A site-directed pegylated NT-4/5 was also produced. The structure of NT-4/5 in complex with domain 5 of TrkB was examined to find amino acid side chains that would be surface available and unlikely to interfere with natural disulfide bonds and also unlikely to interfere in either the interactions between the monomer subunits of NT-4/5 or the TrkB domain 5 to create a PEG attaching site. […] […] Mutant proteins were expressed in E. coli, solubilized, extracted, purified and refolded as the native NT-4/5. To pegylate the refolded NT4-S50C, NT4-Q105C, and NT-4-E67C, first a mild reduction with 0.1 mM DTT (dithiothreitol) was performed. Excess DTT was removed by dialysis against 50 mM sodium acetate at pH 6, then a 5 molar excess of mPEG-maleimide (M. W. of 10,000 Da, SunBio, Inc., South Korea) was incubated with the protein at 37° C. for several days with gentle agitation. Pegylated protein, non-pegylated protein and unreacted PEG were separated via ion exchange or size exclusion chromatography.
as §1
as §1, with “and different forms of” for “and”

human TrkA = target: T4, human TrkA (Homo sapiens, UniProt P04629); assay: Receptor tyrosine phosphorylation in trkA expressing cell line; type: cell-based
T4 construct: expressed in transfected cells
T4 sequence (P04629 33-796): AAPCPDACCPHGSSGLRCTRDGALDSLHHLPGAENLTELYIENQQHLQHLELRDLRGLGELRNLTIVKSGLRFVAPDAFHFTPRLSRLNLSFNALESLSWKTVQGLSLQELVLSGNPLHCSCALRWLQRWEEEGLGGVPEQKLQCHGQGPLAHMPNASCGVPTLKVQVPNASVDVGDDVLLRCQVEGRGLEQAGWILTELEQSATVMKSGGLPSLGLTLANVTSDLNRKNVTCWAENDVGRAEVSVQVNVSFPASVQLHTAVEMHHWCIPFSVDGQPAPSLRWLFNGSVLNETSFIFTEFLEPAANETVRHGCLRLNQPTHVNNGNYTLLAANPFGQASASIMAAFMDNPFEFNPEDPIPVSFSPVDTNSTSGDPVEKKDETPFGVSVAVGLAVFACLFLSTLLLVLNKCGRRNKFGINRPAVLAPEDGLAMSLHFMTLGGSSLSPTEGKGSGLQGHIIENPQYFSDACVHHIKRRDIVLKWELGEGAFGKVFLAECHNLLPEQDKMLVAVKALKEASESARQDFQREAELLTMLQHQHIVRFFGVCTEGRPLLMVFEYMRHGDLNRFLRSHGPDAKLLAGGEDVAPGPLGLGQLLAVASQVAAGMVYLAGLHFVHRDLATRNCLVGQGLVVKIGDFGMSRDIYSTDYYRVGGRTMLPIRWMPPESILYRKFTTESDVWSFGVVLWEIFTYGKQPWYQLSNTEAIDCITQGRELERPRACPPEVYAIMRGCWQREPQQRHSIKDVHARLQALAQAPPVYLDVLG
Excerpt: as §1
as §1, with “and different forms of” for “and”

[2] = test system: NONcNZO-10 polygenic obese mice; assay: Pegylated NT-4/5 cysteine mutant on body weight, food intake, glucose, triglyceride in NONcNZO-10 mice (Example 6); type: in vivo; details: single subcutaneous injection of 1 mg/kg
Experimental: Test animals: 30 male NONcNZO-10 polygenic obese mice at 10 weeks of age weighing in the range of 27-32 g were used in this study.
Administration of NT-4/5 and pegylated NT-4/5: The mice were divided into 4 groups of equivalent body weight distribution (7-8 mice per group). Each group received on the first day (day 1) of the study one and the only dose of either vehicle alone, 1 mg/kg of NT-4/5 or 1 mg/kg of PEG-NT4-S50C, respectively. A final group received a daily subcutaneous dose of 1 mg/kg of NT-4/5 from day 1 to day 5, then from day 7 to day 9. On day 9 after the treatment started, blood samples were collected to determine serum glucose and triglyceride levels. Body weight and food intake were monitored 5 days a week through out the entire study.

DIO mice [3] = assay: Weekly intravenous pegylated G1S NT-4/5 versus WT NT-4/5 on body weight and food intake in DIO mice (Example 8); type: in vivo
Excerpt: as §2, with “29” for “22”, “weaning,” for “weaning”
Administration of NT-4/5 and pegylated NT-4/5: NT-4/5 was obtained from Genentech Inc. or produced as described in U.S. Pat. No. 6,184,360. Pegylated NT-4/5 was produced as follows: A mutation was introduced by changing the glycine 1 position of mature human NT-4/5 sequence to serine, resulting in a mutant form of NT-4/5 (NT4-G1S). NT4-G1S protein was expressed in E. coli, solubilized, extracted, purified and refolded as described above. Refolded NT4-G1S was dialyzed into 50 mM sodium phosphate buffer at pH 6.8 and treated with 1.5 molar excess sodium meta-periodate for 10 minutes to oxidize the N-terminal serine (or threonine) residue to an aldehyde. Remaining periodate was removed by dialysis against 30 mM sodium acetate at pH 4.5. The exact concentration of NT4-G1S was determined and a 2 to 4 fold molar excess of 20K-m-PEG-HZ (methoxy polyethylene glycol hydrazide) was added. The reaction was incubated at 37° C. for several days with gentle agitation. Unconjugated PEG, pegylated NT4-G1S and non-pegylated NT4-G1S were separated via ion exchange or size exclusion chromatography.
The mice were divided into 3 groups of equivalent body weight and baseline blood glucose distribution (7-8 mice per group). Each group received four weekly intravenous doses (on day 1, 8, 15 and 22) of either vehicle, 2 mg/kg of NT-4/5 or 2 mg/kg of pegylated G1S NT-4/5 respectively. Body weight and food intake were monitored 5 days per week through out the entire study.

Molecule: NGF: nerve growth factor, control [reference compound]
Kd (p75NTR): 2 nM

receptor tyrosine phosphorylation of trkC-expressing cell line (human TrkC): activated trkC expressing cells
Molecule: NT-3: neurotrophin-3, control activating trkC expressing cells [reference compound]
Kd (p75NTR): 2 nM

B1: BDNF: recombinant human brain-derived neurotrophic factor from PeproTech Inc. (protein, UniProt P23560 19-247, looked up)
Neurotrophic factor BDNF …: APMKEANIRGQGGLAYPGVRTHGTLESVNGPKAGSRGLTSLADTFEHVIEELLDEDQKVRPNEENNKDADLYTSRVMLSSQVPLEPPLLFLLEEYKNYLDAANMSMRVRRHSDPARRGELSVCDSISEWVTAADKKTAVDMSGGTVTVLEKVPVSKGQLKQYFYETKCNPMGYTKEGCRGIDKRHWNSQCRTTQSYVRALTMDSKKRIGWRFIRIDTSCVCTLTIKRGR
body weight on day 2 (DIO mice [1]): did not significantly reduce body weigh
food intake on day 2 (DIO mice [1]): did not significantly reduce food intake
Kd (p75NTR): 2 nM

B2: PEG-NT4-S50C: human NT-4/5 with serine 50 changed to cysteine, pegylated with mPEG-maleimide (10,000 Da) (conjugate)
chain: GVSETAPASRRGELAVCDAVSGWVTDRRTAVDLRGREVEVLGEVPAAGGCPLRQYFFETRCKADNAEEGGPGAGGGGCRGVDRRHWVSECKAKQSYVRALTADAQGRVGWRWIRIDTACVCTLLSRTGRA
receptor tyrosine phosphorylation of TrkB-expressing cell line (human TrkB): increased receptor tyrosine phosphorylation
receptor tyrosine phosphorylation of trkA-expressing cell line (human TrkA): did not increase receptor tyrosine phosphorylation
receptor tyrosine phosphorylation of trkC-expressing cell line (human TrkC): did not increase receptor tyrosine phosphorylation
body weight [2]: significantly reduced
food intake [2]: significantly reduced
blood glucose level ([2]; day 9): did not significantly reduce
triglyceride level ([2]; day 9): did not significantly reduce

B3: pegylated G1S NT-4/5: NT4-G1S (glycine 1 to serine) pegylated with 20K-m-PEG-HZ; 1PEG or 2PEG form not stated (conjugate, UniProt P34130 81-210, looked up, variant G1S)
Neurotrophin-4: SVSETAPASRRGELAVCDAVSGWVTDRRTAVDLRGREVEVLGEVPAAGGSPLRQYFFETRCKADNAEEGGPGAGGGGCRGVDRRHWVSECKAKQSYVRALTADAQGRVGWRWIRIDTACVCTLLSRTGRA
modifications: 20K-m-PEG-HZ
body weight after the first single dose (DIO mice [3]; 2 mg/kg i.v.): more effective in reducing body weight
food intake after the first single dose (DIO mice [3]; 2 mg/kg i.v.): more effective in reducing food intake than WT NT-4/5
body weight, pairwise difference with the vehicle control group (DIO mice [3]; 2 mg/kg i.v. on day 1, 8, 15, 22, Bonferroni posttests): significant pairwise differences
time to body weight recovery after each weekly dosing (DIO mice [3]; 2 mg/kg i.v. weekly): 3 to 4 days
